From patent publication US20140087995A1 (published 2014)
Numbered stars: 1 amine (or outer) side, 2 acyl side, 3 side chain; on linkers, the order of the positions; unused ones are H or OH. Bridge positions count the residues as written; N and C are the ends. Side chains are listed from the residue outwards. Ends that are not written are not given here. * marks the point of attachment. C20 diacid = O=C(O)CCCCCCCCCCCCCCCCCCC(=O)*; γGlu = O=C(O)[C@H](CCC(=O)[*:2])N[*:1]

T1: rat calcitonin receptor (rat, UniProt P32214 25-516)
T1 construct: whole, on cells; Used as membranes prepared from BHK tk'ts 13 cells transiently transfected with the rat calcitonin receptor (Assay VIII); also called rCTR; rat calcitonin (a) receptor
T1 sequence (looked up): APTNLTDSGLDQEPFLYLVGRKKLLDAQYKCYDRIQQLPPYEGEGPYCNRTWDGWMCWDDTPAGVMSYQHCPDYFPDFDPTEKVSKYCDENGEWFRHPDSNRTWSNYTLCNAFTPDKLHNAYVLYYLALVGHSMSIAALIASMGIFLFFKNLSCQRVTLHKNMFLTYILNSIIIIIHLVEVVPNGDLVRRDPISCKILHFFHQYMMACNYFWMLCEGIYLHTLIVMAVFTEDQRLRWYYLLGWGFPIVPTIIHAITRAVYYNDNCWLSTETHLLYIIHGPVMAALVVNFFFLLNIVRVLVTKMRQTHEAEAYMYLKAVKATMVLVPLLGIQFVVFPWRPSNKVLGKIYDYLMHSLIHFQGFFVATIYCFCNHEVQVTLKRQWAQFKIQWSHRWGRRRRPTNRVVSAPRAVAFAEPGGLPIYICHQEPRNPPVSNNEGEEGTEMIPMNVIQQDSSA

T2: rat amylin receptor (rat calcitonin receptor + rat RAMP 3) (rat, UniProt P32214 25-516; Q9JJ73 23-147)
T2 construct: whole, on cells; Used as membranes prepared from BHK tk'ts 13 cells transiently transfected with rat calcitonin receptor and rat RAMP 3 (Assay VI); also called rAmylin-R; rat amylin 3(a) receptor
T2 sequence (looked up) 1: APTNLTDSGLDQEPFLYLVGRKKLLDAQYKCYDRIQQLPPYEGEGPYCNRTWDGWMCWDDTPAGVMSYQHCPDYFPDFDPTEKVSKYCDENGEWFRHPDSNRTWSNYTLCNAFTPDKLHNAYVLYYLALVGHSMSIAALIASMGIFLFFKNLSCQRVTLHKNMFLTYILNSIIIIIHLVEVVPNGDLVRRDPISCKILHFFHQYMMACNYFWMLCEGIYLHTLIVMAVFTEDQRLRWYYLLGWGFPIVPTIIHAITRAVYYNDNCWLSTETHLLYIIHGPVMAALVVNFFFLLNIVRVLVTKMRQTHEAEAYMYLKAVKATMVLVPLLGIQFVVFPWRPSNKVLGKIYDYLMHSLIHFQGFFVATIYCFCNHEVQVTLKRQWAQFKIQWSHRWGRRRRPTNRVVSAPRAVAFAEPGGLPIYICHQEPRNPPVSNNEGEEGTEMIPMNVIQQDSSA
T2 sequence (looked up) 2: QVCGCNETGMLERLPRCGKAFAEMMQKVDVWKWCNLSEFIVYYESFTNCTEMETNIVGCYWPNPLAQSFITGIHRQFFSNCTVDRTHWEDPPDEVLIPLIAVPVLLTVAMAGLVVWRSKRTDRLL

T3: human calcitonin receptor (human, UniProt P30988 25-474)
T3 construct: whole, on cells; Used as membranes prepared from a BHK tk'ts 13 cell line stably transfected with the human calcitonin receptor (Assay VII); also called hCTR; hCT
T3 sequence (looked up): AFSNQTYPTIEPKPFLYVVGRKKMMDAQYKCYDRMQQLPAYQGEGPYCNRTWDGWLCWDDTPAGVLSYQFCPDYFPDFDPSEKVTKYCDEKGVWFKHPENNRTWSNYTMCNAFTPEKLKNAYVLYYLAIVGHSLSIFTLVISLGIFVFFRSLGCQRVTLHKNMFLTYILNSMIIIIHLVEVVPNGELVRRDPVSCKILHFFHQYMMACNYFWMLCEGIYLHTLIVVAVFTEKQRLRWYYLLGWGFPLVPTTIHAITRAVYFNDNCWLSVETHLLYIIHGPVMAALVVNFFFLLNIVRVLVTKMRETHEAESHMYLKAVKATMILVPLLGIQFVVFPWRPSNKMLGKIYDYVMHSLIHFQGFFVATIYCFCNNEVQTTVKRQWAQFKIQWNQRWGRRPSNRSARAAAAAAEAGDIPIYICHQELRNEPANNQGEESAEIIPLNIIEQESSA


What was measured:
rat calcitonin receptor [1] = biological target: T1, rat calcitonin receptor; assay: IC50 on rat CTR divided by IC50 on rat amylin receptor (Assays VIII/VI)
[2] = biological target: T2, rat amylin receptor (rat calcitonin …); assay: SPA competition with 125I-rat amylin, membranes of BHK cells with rat CTR + rat RAMP3 (Assay VI)
rat calcitonin receptor [3] = biological target: T1, rat calcitonin receptor; assay: SPA competition with 125I-calcitonin, membranes of BHK cells with rat CTR (Assay VIII)
[4] = biological target: T3, human calcitonin receptor; assay: IC50 on human CTR divided by IC50 on human amylin receptor (Assays VII/V)
In short: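 Competition binding by SPA uses membrane preparations (35 ng/μL final) in pH 7.4 Hepes buffer with 1 mM CaCl2 and 5 mM MgCl₂. Incubation lasts 120 min at 25° C, and IC₅₀ comes from one-site fitting.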

Row | Binder | Ratio rCT/rAmylin binding (rat calcitonin receptor [1]) | IC50 [2] [nM] | IC50 (rat calcitonin receptor [3]) [nM] | Ratio hCT/hAmylin binding [4]
1 | K([γGlu-C20 diacid])CNTATCATQRLAHFLRHSSPNFGAIPSSTNVGSNTY-NH2 (disulfide 2-7; N-terminus assumed; SMILES CC[C@H](C)[C@H](NC(=O)[C@H](C)NC(=O)CNC(=O)[C@H](Cc1ccccc1)NC(=O)[C@H](CC(N)=O)NC(=O)[C@@H]1CCCN1C(=O)[C@H](CO)NC(=O)[C@H](CO)NC(=O)[C@H](Cc1c[nH]cn1)NC(=O)[C@H](CCCNC(=N)N)NC(=O)[C@H](CC(C)C)NC(=O)[C@H](Cc1ccccc1)NC(=O)[C@H](Cc1c[nH]cn1)NC(=O)[C@H](C)NC(=O)[C@H](CC(C)C)NC(=O)[C@H](CCCNC(=N)N)NC(=O)[C@H](CCC(N)=O)NC(=O)[C@@H](NC(=O)[C@H](C)NC(=O)[C@@H]1CSSC[C@H](NC(=O)[C@@H](N)CCCCNC(=O)CC[C@H](NC(=O)CCCCCCCCCCCCCCCCCCC(=O)O)C(=O)O)C(=O)N[C@@H](CC(N)=O)C(=O)N[C@@H]([C@@H](C)O)C(=O)N[C@@H](C)C(=O)N[C@@H]([C@@H](C)O)C(=O)N1)[C@@H](C)O)C(=O)N1CCC[C@H]1C(=O)N[C@@H](CO)C(=O)N[C@@H](CO)C(=O)N[C@H](C(=O)N[C@@H](CC(N)=O)C(=O)N[C@H](C(=O)NCC(=O)N[C@@H](CO)C(=O)N[C@@H](CC(N)=O)C(=O)N[C@H](C(=O)N[C@@H](Cc1ccc(O)cc1)C(N)=O)[C@@H](C)O)C(C)C)[C@@H](C)O, Analogue of human amylin; also called compound 70) [N^ε1-[(4S)-4-carboxy-4-(19-carboxynonadecanoylamino)butanoyl]-[His14,Arg17,Pro21,Pro27]-h-amylin] | 96.5 | 0.355 | 34.2 | 60.8
2 | K([γGlu-C20 diacid])CNTATCATQRLAHFLRHSSPNFGAIPSSTNVGPNTY-NH2 (disulfide 2-7; N-terminus assumed; SMILES CC[C@H](C)[C@H](NC(=O)[C@H](C)NC(=O)CNC(=O)[C@H](Cc1ccccc1)NC(=O)[C@H](CC(N)=O)NC(=O)[C@@H]1CCCN1C(=O)[C@H](CO)NC(=O)[C@H](CO)NC(=O)[C@H](Cc1c[nH]cn1)NC(=O)[C@H](CCCNC(=N)N)NC(=O)[C@H](CC(C)C)NC(=O)[C@H](Cc1ccccc1)NC(=O)[C@H](Cc1c[nH]cn1)NC(=O)[C@H](C)NC(=O)[C@H](CC(C)C)NC(=O)[C@H](CCCNC(=N)N)NC(=O)[C@H](CCC(N)=O)NC(=O)[C@@H](NC(=O)[C@H](C)NC(=O)[C@@H]1CSSC[C@H](NC(=O)[C@@H](N)CCCCNC(=O)CC[C@H](NC(=O)CCCCCCCCCCCCCCCCCCC(=O)O)C(=O)O)C(=O)N[C@@H](CC(N)=O)C(=O)N[C@@H]([C@@H](C)O)C(=O)N[C@@H](C)C(=O)N[C@@H]([C@@H](C)O)C(=O)N1)[C@@H](C)O)C(=O)N1CCC[C@H]1C(=O)N[C@@H](CO)C(=O)N[C@@H](CO)C(=O)N[C@H](C(=O)N[C@@H](CC(N)=O)C(=O)N[C@H](C(=O)NCC(=O)N1CCC[C@H]1C(=O)N[C@@H](CC(N)=O)C(=O)N[C@H](C(=O)N[C@@H](Cc1ccc(O)cc1)C(N)=O)[C@@H](C)O)C(C)C)[C@@H](C)O, Analogue of human amylin; also called compound 67) | 85.4 | 0.172 | 14.7 | 51.6
3 | KCNTATCATQRLADFLRHSSK([γGlu-γGlu-C20 diacid])NFGAIPSSTNVGSDTY-NH2 (disulfide 2-7; N-terminus assumed; SMILES CC[C@H](C)[C@H](NC(=O)[C@H](C)NC(=O)CNC(=O)[C@H](Cc1ccccc1)NC(=O)[C@H](CC(N)=O)NC(=O)[C@H](CCCCNC(=O)CC[C@H](NC(=O)CC[C@H](NC(=O)CCCCCCCCCCCCCCCCCCC(=O)O)C(=O)O)C(=O)O)NC(=O)[C@H](CO)NC(=O)[C@H](CO)NC(=O)[C@H](Cc1c[nH]cn1)NC(=O)[C@H](CCCNC(=N)N)NC(=O)[C@H](CC(C)C)NC(=O)[C@H](Cc1ccccc1)NC(=O)[C@H](CC(=O)O)NC(=O)[C@H](C)NC(=O)[C@H](CC(C)C)NC(=O)[C@H](CCCNC(=N)N)NC(=O)[C@H](CCC(N)=O)NC(=O)[C@@H](NC(=O)[C@H](C)NC(=O)[C@@H]1CSSC[C@H](NC(=O)[C@@H](N)CCCCN)C(=O)N[C@@H](CC(N)=O)C(=O)N[C@@H]([C@@H](C)O)C(=O)N[C@@H](C)C(=O)N[C@@H]([C@@H](C)O)C(=O)N1)[C@@H](C)O)C(=O)N1CCC[C@H]1C(=O)N[C@@H](CO)C(=O)N[C@@H](CO)C(=O)N[C@H](C(=O)N[C@@H](CC(N)=O)C(=O)N[C@H](C(=O)NCC(=O)N[C@@H](CO)C(=O)N[C@@H](CC(=O)O)C(=O)N[C@H](C(=O)N[C@@H](Cc1ccc(O)cc1)C(N)=O)[C@@H](C)O)C(C)C)[C@@H](C)O, Analogue of human amylin; also called compound 59) | 28.5 | 0.659 | 18.8 | 4.3
